Data taken from paper PMC9873692 (2023).

B1: P2 domain of the histidine kinase CheA (domain or fragment)
chain: GFKTFYIKVILKEGTQLKSARIYLVFHKLEELKCEVVRTIPSVEEIEEEKFENEVELFVISPVDLEKLSEALSSIADIERVIIKEV
modifications: biotin (in vivo biotinylation, AviTag)

Columns and labels:
Experiment in all cases: ITC
Cheytin 1 = target: Cheytin 1
Cheytin 4 = target: Cheytin 4
Cheytin 2 = target: Cheytin 2
Cheytin 3 = target: Cheytin 3
[1] = target: B1

B1
Kd (Cheytin 1): 220 nM
Kd (Cheytin 4): 490 nM
Kd (Cheytin 2): 110 nM
Kd (Cheytin 3): 660 nM

B2: CheY protein from Thermotoga maritima (natural protein)
chain: MGKRVLIVDDAAFMRMMLKDIITKAGYEVAGEATNGREAVEKYKELKPDIVTMDITMPEMNGIDAIKEIMKIDPNAKIIVCSAMGQQAMVIEAIKAGAKDFIVKPFQPSRVVEALNKVSK
Kd [1]: 150 nM
